Test results: patent US9670514B2, “Method for producing polysaccharide” (SANYO CHEMICAL INDUSTRIES, LTD., priority 2011, dated 2017)

What was measured:
[1] = Specific activity of ribonucleoside diphosphate conversion enzyme solutions (TLC, UV 260 nm); format: biochemical; details: 1 mM uridine diphosphate, 30° C., pH 7.0, with the co-substrate of each enzyme
Procedure: Reaction solution (2) was prepared by adding 10 μL of 1 M sucrose aqueous solution and 10 μL of sucrose synthase aqueous solution (D7-1) to 1 mL of aqueous solution R (50 mM phosphate buffer (pH of 7.0) containing 100 mM sodium chloride, 10 mM magnesium chloride, and 1 mM uridine diphosphate). Three such reaction solutions (2) were prepared and allowed to react at 30° C. for 5 minutes, 10 minutes, and 15 minutes, respectively. As for the amount of compound (C-7) as the reaction product (uridine diphosphate-glucose), the reaction product was developed on TLC (PEI-Cellulose plate available from Sigma-Aldrich Corporation, hereinafter the same) (developing solvent: an aqueous solution containing 1 M LiCl and 1 M formic acid, hereinafter the same), and detected with a UV light (260 nm). The specific activity of sucrose synthase aqueous solution (D7-1) was calculated to be 0.3 U/μL from the relationship between the yield of compound (C-7) and the reaction time.
Reaction solution (3) was prepared by adding 0.1 mg of reduced thioredoxin and 10 μL of ribonucleotide diphosphate reductase aqueous solution (D6-1) to 1 mL of aqueous solution R. Three such reaction solutions (3) were prepared and allowed to react at 30° C. for 5 minutes, 10 minutes, and 15 minutes, respectively. As for the amount of compound (C-6) as the reaction product (deoxyuridine diphosphate), the reaction product was developed on TLC and detected with a UV light (260 nm). The specific activity of ribonucleotide diphosphate reductase aqueous solution (D6-1) was calculated to be 0.3 U/μL from the relationship between the yield of compound (C-6) and the reaction time. […]
Reaction solution (5) was prepared by adding 10 μL of nucleotidase aqueous solution (D3-1) to 1 mL of aqueous solution R. Three such reaction solutions (5) were prepared and allowed to react at 30° C. for 5 minutes, 10 minutes, and 15 minutes, respectively. For the amount of compound (C-3) as the reaction product (uridine monophosphate), the reaction product was developed on TLC and detected with a UV light (260 nm). […]

[2] = Enzyme activity ratio (Y1)=Vmax1/Vmax2 of conversion enzyme (Lineweaver-Burk); format: biochemical
Source text: In the present invention, in the case where ribonucleoside diphosphate conversion enzyme (D) is used, an enzyme activity ratio (Y1) calculated from the following formula (1) using enzyme activity Vmax1 and enzyme activity Vmax2 described below is preferably not lower than 0.1 in terms of efficient polysaccharide production and efficient use of the substrate (ribonucleoside diphosphate-monosaccharide (A)). Enzyme activity ratio (Y1)=Vmax1/Vmax2 (1) • Enzyme activity Vmax1: the enzyme activity of ribonucleoside diphosphate conversion enzyme (D) on ribonucleoside diphosphate. • Enzyme activity Vmax2: the enzyme activity of ribonucleoside diphosphate conversion enzyme (D) on ribonucleoside diphosphate-monosaccharide (A).
An enzyme reaction solution (II) containing specific amounts of substrate (ribonucleoside diphosphate or uridine diphosphate-monosaccharide (A)), enzyme (polysaccharide synthase (B) or ribonucleoside diphosphate conversion enzyme (D)), pH adjuster (K), and water is prepared, which is adjusted to a specific temperature and a specific pH. • Phosphate-containing compound (F) is added, if necessary, to the enzyme reaction solution (II) if the enzyme to be used is (D4). Reducing agent (d6) is added if the enzyme is (D6), and raw material (d7) of nucleotide sugar is added if the enzyme is (D7).
After preparation of the enzyme reaction solution (II), it is allowed to stand for enzyme reaction for 1 minute to 100 hours. Next, the amount (X) of the reaction product obtained from the reaction is measured to determine the initial enzyme reaction velocity v. Likewise, the initial enzyme reaction velocity v is determined, using the enzyme reaction solution (II) having a different substrate concentration. A Lineweaver-Burk plot is generated from the above-obtained initial enzyme reaction velocity v and substrate concentration, and the enzyme activity Vmax is determined therefrom.
The enzyme activity Vmax (M/s) is determined using Lineweaver-Burk plot derived from Michaelis-Menten kinetics. […]
In the above measurement, the result determined using ribonucleoside diphosphate conversion enzyme (D) as an enzyme and ribonucleoside diphosphate as a substrate represents Vmax1, and the result determined using ribonucleoside diphosphate conversion enzyme (D) as an enzyme and ribonucleoside diphosphate-monosaccharide (A) as a substrate represents Vmax2. In the case where two or more types of ribonucleoside diphosphate-monosaccharide (A) are used, Vmax2 is determined for each ribonucleoside diphosphate-monosaccharide (A). The enzyme activity ratio (Y1) is also determined for each type from formula (1) using each Vmax2. […]

Row | Substance | specific activity [1] [U/μL] | enzyme activity ratio (Y1) of each type ([2]; Vmax2 substrates uridine diphosphate-glucuronic acid and uridine diphosphate-N-acetylglucosamine) | enzyme activity ratio (Y1) of each type ([2]; Vmax2 substrates UDP-glucuronic acid, -N-acetylglucosamine, -N-acetylgalactosamine, -glucose, -mannose, -glucosamine) | enzyme activity ratio (Y1) ([2]; Vmax2 substrate uridine diphosphate-N-acetylglucosamine) | enzyme activity ratio (Y1) ([2]; Vmax2 substrate uridine diphosphate-glucuronic acid)
1 | polyribonucleotide nucleotidyltransferase aqueous solution (D5-1): polyribonucleotide nucleotidyltransferase, SEQ ID NO: 6, derived from Escherichia coli | 0.3 | ≥ 10 | – | – | –
2 | pyruvate kinase aqueous solution (D4-1-1): pyruvate kinase, SEQ ID NO: 4, derived from Escherichia coli | 0.3 | – | ≥ 10 | – | –
3 | sucrose synthase aqueous solution (D7-1): sucrose synthase, SEQ ID NO: 2, derived from Vicia faba | 0.3 | – | – | ≥ 10 | ≥ 10
